Data taken from the DeepSol protein solubility set.

Assay: soluble on expression in E. coli; label from the status in PepcDB or PDB records

Question: With “MVHRLDISSEMIAFFKNCAKNGNYTPFLSNYRGLIRDIGQQLEKVSLPNNSLEKLMVKHFANCFVALHTMNSLDELAASAPKFVADFKQAIGNKKTLKELHDNFKSSDTKQQGLNRKLTNKMERNRSEMKQFKMEMMSSFNGLKQNMDTKMEEMMQLMRALIQDLTSQKLAQNPESSKCSFPNYGLEIQKKFEDMIQNMKSQTGSVFELKLKEIEQLEAEAENTIPKIPKKAAGSSSEH” as the sequence, how does the “soluble on expression in E. coli” value read?
Answer: not soluble

Question: With “SAAAADERSPEDGEDEEEEEQLVLVELSGIIDSDFLSKCENKCKVLGIDTERPILQVDSCVFAGEYEDTLGTCVIFEENVEHADTEGNNKTVLKYKCHTMKKLSMTRTLLTEKKEGEENIGGVEWLQIKDNDFSYRPNMICNFLHENEDEEVVASAPDKSLELEEEEIQMNDSSNLSCEQEKPMHLEIEDSGPLIDIPSETEGSVFMETQMLP” as the sequence, how does the “soluble on expression in E. coli” value read?
Answer: not soluble

Question: Which “soluble on expression in E. coli” value does the source give for “MGSDKIHHHHHHKKVIKTMMIAGQDGSHYWRGACEAMKQILENSGMFKVDFVFTPDFGGDINTFKPDFAKYNLVVVNYGGEVWPEPVQKAFENYVADGGGVVIIHSSVVPMAGWKAYNEIIGMGAWEGRNEKDGPYLYWKEGKYVYDYTPGYAGYHGLQHETILEHRAPEHPILKGLPIRWKHFKDEIYTRLRGPVRNVEILATAYERGRHEPLMWTVKWGKGRVFVDLLGHCGNDPNMIYSMECTGFQVTLLRGAEWAATGEVTQEAPRDFPLEDTCTLRPEFKAPFHATN” here?
Answer: not soluble

Question: For “MGSDKIHHHHHHGASVQDLSNTKDAIVESETTLAENNNEYSNKNSLFYSDISSYEIFTDVNSEAALKNLYYNIDEFIDSDSSDVIVKGNIIEIEYVYIDGCSYSVLTVDVERAYKGEVQETITVYEDGGYTRLSDEKEQIEAHADLSQYTEEEMENLLINHTFMGAEHSNVGDTVILFLKTNEGSILGDSYRINCSVFGRYTLNKDSYIRPEFIVENDNPEKITTYSNMDTFEFSVSKSMLEDKLSQQ”, which “soluble on expression in E. coli” value is on record?
Answer: not soluble

Question: For “MGSDKIHHHHHHLRNVLPKDALLTAVDISDSMMDVARAKFLPHEQVTFQVADATTLPFENEAFDAVVCQFGVMFFDKDTAFREAYRTLGRGGRYLFSVWDSRRYNPFASLAFEVLKQFFPLNPPRFLEAPVSSFEIDPIKEALIQSGFERIVISVQGREHDILDVRTFARGLVFSPVIEEIRERGGVEPEDIIAALAEALKREYGSRPTRYPMQAILFEAEKP”, which “soluble on expression in E. coli” value is on record?
Answer: not soluble

Question: With “MKIDLNADLGEGCASDAELLTLVSSANIACGFHAGDAQIMQACVREAIKNGVAIGAHPSFPDRENFGRSAMQLPPETVYAQTLYQIGALATIARAQGGVMRHVKPHGMLYNQAAKEAQLADAIARAVYACDPALILVGLAGSELIRAGKQYGLTTREEVFADRGYQADGSLVPRSQSGALIENEEQALAQTLEMVQHGRVKSITGEWATVAAQTVCLHGDGEHALAFARRLRSAFAEKGIVVAALEHHHHHH” as the sequence, how does the “soluble on expression in E. coli” value read?
Answer: soluble

Question: Which “soluble on expression in E. coli” value does the source give for “MGSDKIHHHHHHMAAKKKSASSRKLNLGCGRDIREGWINLDSMALPGVDVVADLSLCATTPLPFEDSSIDEFLLSHLIEHIPDPLPLMQELWRIAKPGAKMQIRVPHGAHDDAWTNPTHVKPYFARSFGYFSQPWYWRADYGYRGDWQPELVTYSVPRRRFAGQMPAQILEQIDALRNVVQEMIVDLVAVKPLRQPKKDLMQAANIKIALME” here?
Answer: not soluble

Question: Which “soluble on expression in E. coli” value does the source give for “MGSDKIHHHHHHMKISVLGAGCIGGSIALKLKEKHHVTAFDRDEETMKALEENGIETVSKESDLYDTDLLVLALPMSVEERFLKETDFSGKILDVASVKTPFMEIARERGLNFTGGHPMAGNERKGKSGWDREMFDGKIFFLCSLDGKEDGMIENIVKDLGARPLWIDYRIHDEIVAAVSHVQYLISLSARYVGKPFEEYAGPGYLSNTRLSKQNMEMALDMIRYNKENILKYLENARNFLNVLYHLTEKEDFENLKKVIREVIS” here?
Answer: not soluble

Question: With “MGSDKIHHHHHHMGTDPIEARFEQLNVWRNGDKRAPHKPLLILLALASWQRGAREMRFAECEQKLGELIREFGPAAKAVHPEYPFWRLQNDGLWVVEADQEMRTRQSNSDPLKSELRAAGARGHFFADVAEELERRPALIGRVAQRVLDAHFPETLHEDILAAVGLEVSEETESTTRRRRDPNFRNAVLQAYQYRCAVCELDLRIGSITVGLEAAHVKWHQARGPDAVHNGVALCSLHHKLFDLGAFHIGADRRILVSEQVHGTSRFEEVLLRHHGALALEPVRSEHKVLRDFVGWHFDQVFKKEARPAT” as the sequence, how does the “soluble on expression in E. coli” value read?
Answer: not soluble

Question: For “MASLLDKAKDFVADKLTAIPKPEGSVTDVDLKDVNRDSVEYLAKVSVTNPYSHSIPICEISFTFHSAGREIGKGKIPDPGSLKAKDMTALDIPVVVSYSILFNLARDVGVDWDIDYELQIGLTIDLPVVGEFTIPISSKGEIKLPTFKDFF”, which “soluble on expression in E. coli” value is on record?
Answer: soluble

Question: Which “soluble on expression in E. coli” value does the source give for “MSLIVNFHKVNLKKKYPLQISRGTHSKSQNLFVEIIKDGITGWGESAPGKTEGASNADEVEKWLLKLIDTGIDSLSIYEIFQRSKDLNIPPCVHAAIDIALWDWKAKKAGLPLNNLLGLPTPSTPTSLTIGINPPEIIKERVEMLLSNPQIKALKIKLGSPDGIEYDKSIYSQVLESTKKSNISIRVDANGGWSLDEAKLMMKWLAERKAEYIEQPLVEGEEDKLKYLFKSRPLPIFIDESCRFSEDVARHFEYVDGVNLKLMKCGGITEALRILNVAKSHNLKTMIGCMSESSISISAGASISGIIDYVDLDSHYNLDPDPSEGATMIDGITMNDNKPGHGSKLKIENYAEGHHHHHH” here?
Answer: soluble

Question: With “MGSDKIHHHHHHMTQPTLPPPPRTRFTVSDFNRMGGSVGFNYRLPGQEGGGTGIENLCIAEGRVEECEIRPGITLIVSDVHVYHHYESTSVMTPRFSAIVMLQGQARARLDKQDDVRLAAQSGLNALYGDTVAMTGVHPAGQRLRSVNLSVTAPEAADDEYTSEIIWKLMQSSAPRLRRWPVPHHLLLSIEHLLECDWDQPLRNMVREGVGTQLLAHALAALQHAPVTHRGLTQRDRQLLERVRERLHEAPGEDHTLDDLARLACMSPSTLRAKFHAVYHRSVFSWLRERRLEVAREQLARGWSVQQAAHFVGYRHATNFATAFRERYGVAPSQLG” as the sequence, how does the “soluble on expression in E. coli” value read?
Answer: not soluble

Question: For “MSLWKNFNFVTKYFTKRRQRYITKTIAMNQQEFQLREITYQDIKDLLAIEREVYAGELPWTMSAFMAELGSKAPHLYLLAAINGKTVGFIGCRIQGTDAHITNVAVHTAYQGLGLGRSLIEETRIFAKKNRCETLSLEVRMSNVKAQRLYRKIGFVSQTVKKGYYDENNEDALEMIIDLKEEEGHHHHHH”, which “soluble on expression in E. coli” value is on record?
Answer: soluble

Question: With “MSLQLPISQYNELLQKKLEKLTALLHPFNAPDIQVFDSPTSHYRMRAEFRIWHEQDDFYHIMFDQATLQRYRVDEFPIASMLINRMMQTLLPLLKQQEVLHKKLFQIDYLSTLSNKIIVSLLYHKTLTEEWESAAKNLKDLLEKQDFDVQIIGRASKQKICFEQDYVDEVLPVNGRNYVYRQVENSFTQPNATVNCKMLEWAIDCTQNSEGDLLELYCGNGNFSIALAQNFRKVLATEIAKPSVAAAQFNIAENKVDNLQIIRMSAEEFTQAMNGVRAFNRLKGIDLKSYECNTIFVDPPRAGLDPDTVKLVQNYDRILYISCNPHTLCDNLVELSKTHRIEKAALFDQFPYTDHMESGLWLIRKEGHHHHHH” as the sequence, how does the “soluble on expression in E. coli” value read?
Answer: soluble

Question: For “MGSDKIHHHHHHMKTTLAERLKTARTAQGLSQKALGDMIGVSQAAIQKIEVGKASQTTKIVELSNALHIRPEWLANGGGPMHSDRVVRSLQESSIPPTSKWGTVSAWDNTTKLSEDEVEVPFLKDIEFACGDGRIQSEDYNGFKLRFSKATLRKVGANTDGSGVLCFPAAGDSMEPIIPDGTTVAVDTNNKRIIDGKLYAIAQEGSGNDKLKRIKQLYRKPGGLLVIHSFNRDADEEAYESEVEIIGRVFWYSVLL”, which “soluble on expression in E. coli” value is on record?
Answer: not soluble

Question: With “MGSDKIHHHHHHMREAVMCRFVAYLGRPTLLENVLVRPKNSIIMQSLHARETKYRTNGDGFGLGWYSPEVSSDPALFTSVYPAWNDRNLLHLTAKIQSPCFFAHVRSASAGGVTNYNCHPFIYGDWMLMHNGEINDFIDVKRHIRHLLDDDIYHWVKGQTDSEHLFGLFLQLAKGRDITQLSVAADVLQETINKILEVIGQFGHSGPSYFNICLTNGKKIIATRYCSHEKKKPLTLHYLIGYVLSTQGLWIKEEGNPAYVVVSSERLNDLDEGWEDVPPQHMILIDENKNIQLRPLQTLG” as the sequence, how does the “soluble on expression in E. coli” value read?
Answer: not soluble

Question: With “MSLSISFKDVPAGHWSYKAILDLASKNIVTGYGNGIFGFGDDVTREQVARLMYLQLKPESQENYNNPYNDINDHSTSFKREILALTEMGIFAGDEKGNFRPKASLTREEMAQVLTNAYKLVAKSEHTFVDVDRKSWSNKAISAVQSNRIAAGTGDNMFSPKMNVTREQYVQFLYNATLPYEERPGANQEPKRFANCKEANDAGYYDITRDSPYYGKHLDRDGDGIACERNKSSKEGHHHHHH” as the sequence, how does the “soluble on expression in E. coli” value read?
Answer: not soluble

Question: For “MGSDKIHHHHHHISNNLANSSTIGYKTSNASFYSLVTGTGSTSNFTGAGVVASATQNVINQGVIVGTQNVTDLAVDGKGMFIVTDRSGSNELYYTRAGDFYPNADGDLVNSNNYYLQGYPTDRNGVPLTNTGNSGASLETINLAGATGAAKATSEMSIQAVLPAQATAGDSTAVPPVAAYTSSSDVEIYDSLGVAHTMTVKWTKMSDTKWTMTLYDPKLSSDMTGDATGAISSTTTGVTDVPANAGPPATSHGIAVDVEFTDQGLLKTPSVLALKITPDASNGTGAAISEIALNLGTAGKANGLSTYSNEDSDGKPAVDLKKVVQDGVTYGTYYSNTISKAGLVYANFTNGISYPIYQVPLAMFSNVNGLEAVSGTAYSATVKSGTPTYVTAGTGGSGGVSSGSVESSTVDTAAEFSKLIVSQQAYSAATQIISSNQEMFQNLISAKR”, which “soluble on expression in E. coli” value is on record?
Answer: not soluble

Question: For “MAHHHHHHMKRDRDDSVVGTPNGKWDVSPHGTLGVEAKEFERNAVRRYVFGLVHLKNEGPKANAVDVSESIVRSFNERFRRIVKIGQGSFGEVYIVFDTVTQTHLTMKRMQLLRGAGRRVMGLCNTTSREMNLLRVLKHVNIVELFDYHVVPDGTLIMLMPVIAYDLVSLIRLWRNGGPRGEPSAGRMPLPTIKCIFRQLLTGLAYLHKERVIHRDLKPTNVMINEKGVVKIIDFGWARFCPARWRGPMTGPPCPVAYRPPEVLLGGEHAVNYDASVDLWCCGCILFEMLSGGKMFINARSEAEAVAGITDWLGSPSSKSTLYYGHSAASLIRFKQNRPSRLAHRCELLHIDRDSVDMLDKMLQLEPKWRMPAEELLRHRWFSSAPVACEPHEISLPEHNMYRWLDSKRPS”, which “soluble on expression in E. coli” value is on record?
Answer: soluble

Question: Which “soluble on expression in E. coli” value does the source give for “MKVAIVGVSGAVGQEFLRVLDERNFPMDELVLFGSKRSAGTTYTFRGKQIEVKLLQHNDDFKGVDIAFTSAGAGTSKEFEKTITKYGAVMIDNSSAFRMDADVPLVVPEVNAADALERPRGVIANPNCTTIQMVVALKAIEQLSHIKTVHVSTYQAASGAGAAAMDELYEQYRQVLANEPVTVEKFAYQLAFNLIPQIDVFTENGYTKEEMKMYNETRKIMHSDVKVSATCVRVPALRAHSESIWVETERPISVEEAREAFAKGEGLVLQDNPAEKEYPMPLFLAGKDPVYVGRIRKDLTNENGLTFWIVGDQIKKGAALNAVQIAEYLIKVKNV” here?
Answer: not soluble

Question: With “AKDDKVTVLSIERGNKLVYLEKLGLRGDQFYYKIERIRESNGVVYIYHTSYIPEQYINANYPNLEYYSSIYNRFKLDYHIHMNDEHFEEINEIVFPTPEHAASVLGVDEQFPTVLQTKITKLESTGQVLEYSETYKRSDYYK” as the sequence, how does the “soluble on expression in E. coli” value read?
Answer: soluble

Question: For “MHRKRERERERERERERERERERERERERERGRDEETSKEKRVTET”, which “soluble on expression in E. coli” value is on record?
Answer: soluble

Question: For “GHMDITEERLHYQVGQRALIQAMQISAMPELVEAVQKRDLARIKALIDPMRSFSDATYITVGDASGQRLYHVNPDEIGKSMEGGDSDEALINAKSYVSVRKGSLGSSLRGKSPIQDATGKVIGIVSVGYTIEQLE”, which “soluble on expression in E. coli” value is on record?
Answer: soluble
